The RNAGym collection of RNA variant scans (doi:10.1021/acssynbio.7b00057)

B1: Pistol ribozyme (parent)
chain: GGGUCGUUGUUCCAUAAUCGCGUGGAUAUGGCACGCAAGUUUCUACCGGGCACCGUAAAUGUCCGACUGGAGCCGUUCGGGCGGCUAUAAACAGACCUCAGGCCCGAAGCGUGGCGGCACCUGCCGCCGGUGGUAAAAAAGAUCGGAAGAGCACACGUCU

Variants of: B1
Assay: aptazyme ON/OFF ratio, guanine; higher = stronger switching; co-transcriptional cleavage with and without guanine

In order of rising “aptazyme ON/OFF ratio” value:
1. U7A U8C G9A U10C U11C C12A C13U  1.04
2. U7A U8C G9A U10G U11A C12U  1.04
3. U7A U8C G9A U10G U11C C12U  1.06
4. U7A U8C G9A U10C U11C C12G C13A  1.06
5. U7A U8C G9A U10C U11C C12G C13U  1.06
6. U7A U8C G9A U10G U11A C12G C13G  1.07
7. U7A U8C G9A U10A C13G  1.07
8. U7A U8C G9A U10C U11C C12G C13G  1.07
9. U7A U8C G9A U10C U11C C12A C13A  1.08
10. U7A U8C G9A U10A U11G C12A C13A  1.08
11. U7A U8C G9A U10C U11C C12A C13G  1.09
12. U7A U8C G9A U10G U11C C12G C13G  1.09
13. U7A U8C G9A U10C U11A C12A C13G  1.1
14. U7A U8C G9A U10G U11A C12G C13A  1.11
15. U7A U8C G9A U11A C12G C13A  1.11
16. U7A U8C G9A U10A U11A C12U C13G  1.11
17. U7A U8C G9A U10A U11A C13G  1.12
18. U7A U8C G9A U10C U11G C12A C13A  1.12
19. U7A U8C G9A U10C U11A C12A C13A  1.13
20. U7A U8C G9A U10G U11A C12A  1.13
21. U7A U8C G9A U10A U11A C12U C13A  1.13
22. U7A U8C G9A U10C U11G C12A C13U  1.14
23. U7A U8C G9A U10A C12G C13A  1.14
24. U7A U8C G9A U10G U11G C12A C13G  1.15
25. U7A U8A U10G U11A C13U  1.15
26. U7A U8C G9A U11A C12G C13U  1.16
27. U7A U8C G9A U10A U11G C12A C13U  1.16
28. U7A U8A U10G U11G C12A C13G  1.16
29. U7A U8C G9A U10G U11C C12U C13A  1.16
30. U7A U8C G9A U10G U11C C12U C13U  1.16
31. U7A U8C C12G  1.18
32. U7A U8C G9A U10A U11A C13U  1.18
33. U7A U8C G9A U10G U11C C12G C13U  1.18
34. U7A U8C G9A U10C U11A C12A C13U  1.19
35. U7A U8C G9A U10C U11A C12A  1.19
36. U7A U8C G9A U10G U11C C12A  1.19
37. U7A U8C G9A U10G C12G C13G  1.2
38. U7A U8C G9A U10A C13U  1.2
39. U7A U8C G9A U10A C12A C13A  1.2
40. U7A U8C G9A U10G U11C C12U C13G  1.2
41. U7A U8A U11G C12U C13A  1.2
42. U7A U8C G9A U11A C12G C13G  1.21
43. U7A U8C G9A C12U  1.21
44. U7A U8A U10G U11G C12A C13A  1.21
45. U7A U8C G9A U10C C12A  1.21
46. U7A U8C G9A U10C U11A C12G  1.21
47. U7A U8C G9A U10G U11C C12G C13A  1.21
48. U7A U8C G9A U10A C13A  1.22
49. U7A U8C G9A C12A  1.22
50. U7A U8C G9A U10A C12A C13G  1.22
51. U7A U8C G9A U10G U11C C12G  1.22
52. U7A U8A U10G U11G C12U C13A  1.23
53. U7A U8C G9A U10A U11G C12A C13G  1.23
54. U7A U8C G9A U11A C12U  1.25
55. U7A U8A U11G C12U C13G  1.25
56. U7A U8C G9A U10C U11A C12U  1.25
57. U7A U8C G9A U10A C12G C13G  1.25
58. U7A U8A U10G U11G C12U C13G  1.26
59. U7A U8C G9A U11A C12G  1.26
60. U7A U8C G9A U10G C12G C13A  1.27
61. U7A U8A U10G U11G C12U C13U  1.27
62. U7A U8C G9A U10G U11G C12A C13U  1.27
63. U7A U8C G9A U10G U11A C12G  1.27
64. U7A U8C G9A U10A C12G C13U  1.28
65. U7A U8C G9A U10C U11G C12U C13A  1.29
66. U7A U8C G9A U10C C12G  1.29
67. U7A U8C G9A U10G U11A C12G C13U  1.3
68. U7A U8C G9A U10A U11A C12U C13U  1.3
69. U7A U8C G9A U10G C12G C13U  1.31
70. U7A U8C G9A U10C U11G C12A C13G  1.33
71. U7A U8A U10G U11G C12A C13U  1.34
72. U7A U8C G9A U10A U11A C13A  1.35
73. U7A U8C G9A U10C U11G C12U C13G  1.35
74. U7A U8A U11G C12U C13U  1.35
75. U7A U8C G9A U10C C12U  1.35
76. U7A U8C G9A U10A C12A C13U  1.36
77. U7A U8C G9A U10G U11G C12A C13A  1.39
78. U7A U8C G9A U10C U11G C12U C13U  1.41
79. U7A U8C C12A  1.42
80. U7A U8C G9A C12G  1.43
81. U7A U8C G9A U11A C12A  1.43
82. U7A U8C C12U  1.49
83. U7A U8C G9A  1.74
